Laboratory results as given in the RNAGym collection of RNA variant scans (doi:10.1073/pnas.2313332121).

B1: TPR t1 (parent)
chain: GACCAAUCUGCCCUCAGAGCUCGAGAACAUCUUCGGAUGCAGAGGAGGCAGGCUUCGGUGGCGCGAUAGCGCCAACGUCCUCAACCUCCAAUGCAUCCCACCACAUGAUGAUGCCUGAAGAGCCUUGGUUUUUUG

Variants of: B1
Experiment: polymerase ribozyme fitness, log enrichment relative to wild type (log ratio); higher = more active; in vitro selection for triplet polymerase activity
Summary of the method: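 After PCR construction and transcription, each subunit's mutant library from a heterodimeric triplet polymerase ribozyme was annealed with a biotinylated primer, the partner subunit and triplets. Incubation was frozen, at −7 °C, and extended constructs were gel-excised, bound to streptavidin beads and amplified by RT-PCR, in one selection round done in triplicate. Fitness is the logarithm of a genotype's enrichment divided by that of the wild type, from inverse-variance-weighted replicate averages of Illumina-sequenced inputs and outputs. The base of the logarithm is 2, and genotypes needed ≥10 input reads and ≥1 read per output.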

Row | Variant | polymerase ribozyme fitness (log ratio)
1 | C56U C72U U78A C80A | -4.1
2 | U32A A46C C64U U78G | -4.98
3 | G39A C56U C85U A111U | -3.84
4 | A6G C12U | -0.282
5 | C13A A24G U32C C94U C104U G120A | -1.91
6 | C49A C56U | 0.0901
7 | G42C C56G C88G C114A | -5.36
8 | G42A A121U | 0.623
9 | C72G C124A | 1.03
10 | A27U C72U U87G | -3.11
11 | A29U C56G G58C G77A C88U G120C C123G U129A | -5.14
12 | G17U C20U A26G G42C A83U C124U U130G | -5.83
13 | A91G G110U | -2.66
14 | G48U G57U C76G U78A G117A | -2.42
15 | C13U G120A | 1.58
16 | C11U G113C | -2.55
17 | G47U G61A C85A | -1.18
18 | A26C A43G G69A U78G C82G C115A C123U U130G | -6.36
19 | C53A G71A C124A | 0.149
20 | G61U A68U U87A C114G | -6.91
21 | C13G C62G A66U G113U | -7.31

Row | Variant | polymerase ribozyme fitness (log ratio)
22 | U7A C20U | -0.343
23 | C8A C13U C49G | 0.151
24 | A37G C104G | -6.69
25 | G58C A111G | 0.509
26 | A6U G17C U130A | -4.89
27 | U9C C15A G45C G57C U59A G120A | 0.743
28 | A16U C34A C64A U109G C123A U129G | -6.08
29 | C56G C72U C124U | -0.654
30 | C12A G42A C88U C114A G120A | -2.22
31 | G61C A83G | -3.02
32 | C34G A83G | -6.49
33 | G122U | 0.322
34 | A5U G10A C11A C72G G110A | -1.86
35 | C8A G69U | 0.656
36 | A50C G60C C64A A103G C104A C124U | -5.11
37 | U7A U14G G17C C82G C102A C114G | -5.18
38 | U9A A18U U92C | -2.53
39 | G117U U129A | -3.5
40 | C12G C13A G42C G69A G117C A118U U134G | -4.53
41 | G48U G57A C101U C124G | 0.412
42 | A6C C12A U54G | -1.08

Row | Variant | polymerase ribozyme fitness (log ratio)
43 | C11G G113A U133A | -1.34
44 | G42C G48U C70A G120U | -5.45
45 | A41C C76A C79A U112A U125C | -2.16
46 | C72A U78A | 0.142
47 | G93U | -1.12
48 | C12U G39A C72A A74G C79U C80G | -5.3
49 | G17U U59C A108G A118U | -5.03
50 | A46C G69U | -0.0247
51 | C123G U125C | 1.61
52 | A2G A74U C89G U112A | -1.32
53 | C8A G19U | -2.62
54 | G19A A66U C101U | -4.61
55 | C85U U133A | -0.839
56 | C73A G113A | -0.815
57 | G51A C53G | -2.12
58 | C15A U54G A90U | -3.13
59 | C11G A37C A46U G120C G128C | -0.871
60 | A83C A84C A119G | 0.957
61 | C22G A41U G93U | -5.01
62 | G39U C62U C115G | -1.99
63 | U7A G48A A50G G77A C101U U109A | -5.13

Row | Variant | polymerase ribozyme fitness (log ratio)
64 | A119U G127U | -2.01
65 | C62A C72G U112G | -1.95
66 | G44U G63C C72U A111U | -5.44
67 | A2C C13G C15U C62U | -4.93
68 | A41G C70U C82A U125G | -1.79
69 | G60U C97U | -1.7
70 | C13A G45U G69U | -1.92
71 | G47U C64A U116G C124U | -6.49
72 | C4U G47A G107U C124U | -3.15
73 | C49U C85A | -2.47
74 | G19C G45A U78C C82G U112C | -1.42
75 | A18U C70U U112C | -1.2
76 | A29U G48C C53U | -3.4
77 | G10C G47U C101A A103U | -6.38
78 | C62A G120C | -0.534
79 | C20U A50U U78C | -1.87
80 | C12U G25A G93C G120C | -7.38
81 | C8G G61C C72A C97U U130A | 0.551
82 | C28A C72U C123U | -3.7
83 | A50C C70G | -3.56
84 | G17A C53U C89U C101A U109G | -6.85
